Test results reported in patent publication US8759300 (RESEARCH FOUNDATION FOR THE STATE UNIVERSITY OF NEW YORK, dated 2014).

B2: EGF (ligand, UniProt P01133 971-1023, looked up)
chain: NSDSECPLSHDGYCLHDGVCMYIEALDKYACNCVVGYIGERCQYRDLKWWELR
B3: IIICS, variably-spliced domain of fibronectin (other, human)
chain: MGSDELPQLVTLPHPNLHGPEILDVPSTVQKTPFVTHPGYDTGNGIQLPGTSGQQPSVGQQMIFEEHGFRRTTPPTTATPIRHRPRPYPPNVGEEIQIGHIPREDVDYHLYPHGPGLNPNASTTSHHHHHHC
notes: domain: IIICS; The IIICS construct is not described separately

What was measured:
TGF-α = TGF-α (UniProt P01135 40-89); experiment: equilibrium and kinetic binding
EGF = target: B2; experiment: equilibrium and kinetic binding
FGF-1 = FGF-1 (UniProt P05230 16-155, limits assumed); experiment: equilibrium and kinetic binding
[1] = target: T1, basic fibroblast growth factor (bFGF, FGF-2) (human, UniProt P09038 143-288, limits assumed); experiment: peptide binding to the GF
[2] = target: T2, FN70, the 70 kDa amino terminus of fibronectin (UniProt P02751 32-608, limits assumed); experiment: equilibrium and kinetic binding
T2 construct: domain: FN70 (70 kDa amino terminus); also called amino-terminal end of FN

FNIII3-6 = target: T3, FNIII3-6 (human, UniProt P02751 813-1175, limits assumed); experiment: equilibrium and kinetic binding
T3 construct: domain: FNIII3-6; Recombinant; also called FNII3-6 [sic]

FNIII1-7 = target: T4, FNIII1-7 (human, UniProt P02751 610-1266, limits assumed); experiment: equilibrium and kinetic binding
T4 construct: domain: FNIII1-7; This construct is not described separately

[3] = target: T5, FNIII8-11 (C), classic cell-binding domain of fibronectin containing RGD (human, UniProt P02751 1358-1721); experiment: equilibrium and kinetic binding
T5 construct: domain: FNIII8-11; Recombinant

[4] = target: B3; experiment: binding to FN functional domains
FNIII2 = target: T6, FNIII2 (human, UniProt P02751 722-812, limits assumed); experiment: binding to FN functional domains
T6 construct: domain: FNIII2; Recombinant

FNIII1-11 = target: T7, FNIII1-11 (human, UniProt P02751-8 610-1630); experiment: binding to FN functional domains
T7 construct: domain: FNIII1-11; Recombinant

FNIII1 = target: T8, FNIII1 (human, UniProt P02751 610-702, limits assumed); experiment: binding to FN functional domains
T8 construct: domain: FNIII1; Recombinant; also called FNIIII [sic]

[5] = target: T9, FNIII12-15 (H), heparinII-binding domain of fibronectin (human, UniProt P02751-10 1631-1987); experiment: binding to FN functional domains
T9 construct: domain: FNIII12-15; Recombinant

FNIII1-2 = target: T10, FNIII1-2 (human, UniProt P02751 610-812, limits assumed); experiment: binding to FN functional domains
T10 construct: domain: FNIII1-2; Recombinant

FNIII12-14 = target: T11, FNIII12-14 (human, UniProt P02751 1812-2082); experiment: binding to FN functional domains
T11 construct: domain: FNIII12-14; Recombinant

[6] = target: T12, intact human plasma fibronectin (FN) (human, UniProt P02751 32-2477); experiment: equilibrium binding to FN adsorbed to a surface or coupled to agarose beads
T12 construct: Adsorbed to plastic or coupled to agarose beads in the assays; The background calls plasma FN a disulfide-linked dimer; also called intact FN

[7] = target: T13, FNIII12-V15 (HV), composite heparinII-binding and variably-spliced IIICS domains of fibronectin (human, UniProt P02751 1812-2288); experiment: plasmon resonance modulation
T13 construct: domain: FNIII12-V15; Recombinant, from E. coli; Some constructs carry GST at the C-terminus

[8] = target: T1, basic fibroblast growth factor (bFGF, …); experiment: method not restated in the sentence
[9] = target: T1, basic fibroblast growth factor (bFGF, …); experiment: equilibrium or kinetic binding, not said which
[10] = target: T12, intact human plasma fibronectin (FN); experiment: competition: I-125 TGF-β1 bound to intact human plasma FN adsorbed on plastic (0.125 µM, blocked with 2% BSA), 25°C, 2 h, with rising peptide; % of binding without peptide, n=3 [left panel]
Experimental: (§1) Figure 9: FIG. 9. Inhibition of TGF-β1 and PDGF-BB binding to intact human plasma FN with TGF-β1 and PDGF-BB FN-binding peptides, respectively. FN was adsorbed onto tissue culture plastic at a concentration of 0.125 μM and then excess protein-binding sites of the plastic blocked with 2% bovine serum albumin. Growth factor labeled with I^125 was incubated with FN-coated plates at 25° C. for 2 hours in the presence or absence of peptide. Data was calculated as [(GF binding in presence of peptide–background)/(GF binding in absence of peptide-background)]×100. n=3.
(§2) Two of these synthetic peptides (homologous to TGF-β1 and homologous to PDGF-BB) inhibit TGF-β1 and PDGF-BB binding to FN respectively (FIG. 9). Inhibition of TGF-β1 and PDGF-BB binding to intact human plasma FN was determined as follows. FN was adsorbed onto tissue culture plastic at a concentration of 0.125 μM and then excess protein-binding sites of the plastic blocked with 2% bovine serum albumin. Growth factor labeled with I^125 was incubated with FN-coated plates at 25° C. for 2 hours in the presence or absence of peptide. For example, relative binding of TGF-β1 to immobilized FN was determined for increasing concentrations of the synthetic peptide homologous to TGF-β1. […] For example, relative binding of PDGF-BB to immobilized FN was determined for increasing concentrations of the synthetic peptide homologous to PDGF-BB. […]

[11] = target: T12, intact human plasma fibronectin (FN); experiment: competition: I-125 PDGF-BB bound to intact human plasma FN adsorbed on plastic (0.125 µM, blocked with 2% BSA), 25°C, 2 h, with rising peptide; % of binding without peptide, n=3 [right panel]
Experimental: as §1, §2

Sequence of TGF-α (P01135 40-89 limits assumed): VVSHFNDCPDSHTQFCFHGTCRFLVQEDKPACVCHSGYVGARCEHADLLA
Sequence of FGF-1 (P05230 16-155 limits assumed): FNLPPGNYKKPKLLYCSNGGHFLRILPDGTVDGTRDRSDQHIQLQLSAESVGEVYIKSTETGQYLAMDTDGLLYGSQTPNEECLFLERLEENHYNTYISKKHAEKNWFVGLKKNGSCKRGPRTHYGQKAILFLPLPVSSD
T1 sequence (P09038 143-288 limits assumed): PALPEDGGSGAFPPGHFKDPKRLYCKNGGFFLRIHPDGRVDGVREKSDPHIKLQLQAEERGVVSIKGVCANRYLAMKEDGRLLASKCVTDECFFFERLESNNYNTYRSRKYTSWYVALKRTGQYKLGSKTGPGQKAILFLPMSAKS
T12 sequence (P02751 other isoform, or with tags, fused parts or gaps limits assumed): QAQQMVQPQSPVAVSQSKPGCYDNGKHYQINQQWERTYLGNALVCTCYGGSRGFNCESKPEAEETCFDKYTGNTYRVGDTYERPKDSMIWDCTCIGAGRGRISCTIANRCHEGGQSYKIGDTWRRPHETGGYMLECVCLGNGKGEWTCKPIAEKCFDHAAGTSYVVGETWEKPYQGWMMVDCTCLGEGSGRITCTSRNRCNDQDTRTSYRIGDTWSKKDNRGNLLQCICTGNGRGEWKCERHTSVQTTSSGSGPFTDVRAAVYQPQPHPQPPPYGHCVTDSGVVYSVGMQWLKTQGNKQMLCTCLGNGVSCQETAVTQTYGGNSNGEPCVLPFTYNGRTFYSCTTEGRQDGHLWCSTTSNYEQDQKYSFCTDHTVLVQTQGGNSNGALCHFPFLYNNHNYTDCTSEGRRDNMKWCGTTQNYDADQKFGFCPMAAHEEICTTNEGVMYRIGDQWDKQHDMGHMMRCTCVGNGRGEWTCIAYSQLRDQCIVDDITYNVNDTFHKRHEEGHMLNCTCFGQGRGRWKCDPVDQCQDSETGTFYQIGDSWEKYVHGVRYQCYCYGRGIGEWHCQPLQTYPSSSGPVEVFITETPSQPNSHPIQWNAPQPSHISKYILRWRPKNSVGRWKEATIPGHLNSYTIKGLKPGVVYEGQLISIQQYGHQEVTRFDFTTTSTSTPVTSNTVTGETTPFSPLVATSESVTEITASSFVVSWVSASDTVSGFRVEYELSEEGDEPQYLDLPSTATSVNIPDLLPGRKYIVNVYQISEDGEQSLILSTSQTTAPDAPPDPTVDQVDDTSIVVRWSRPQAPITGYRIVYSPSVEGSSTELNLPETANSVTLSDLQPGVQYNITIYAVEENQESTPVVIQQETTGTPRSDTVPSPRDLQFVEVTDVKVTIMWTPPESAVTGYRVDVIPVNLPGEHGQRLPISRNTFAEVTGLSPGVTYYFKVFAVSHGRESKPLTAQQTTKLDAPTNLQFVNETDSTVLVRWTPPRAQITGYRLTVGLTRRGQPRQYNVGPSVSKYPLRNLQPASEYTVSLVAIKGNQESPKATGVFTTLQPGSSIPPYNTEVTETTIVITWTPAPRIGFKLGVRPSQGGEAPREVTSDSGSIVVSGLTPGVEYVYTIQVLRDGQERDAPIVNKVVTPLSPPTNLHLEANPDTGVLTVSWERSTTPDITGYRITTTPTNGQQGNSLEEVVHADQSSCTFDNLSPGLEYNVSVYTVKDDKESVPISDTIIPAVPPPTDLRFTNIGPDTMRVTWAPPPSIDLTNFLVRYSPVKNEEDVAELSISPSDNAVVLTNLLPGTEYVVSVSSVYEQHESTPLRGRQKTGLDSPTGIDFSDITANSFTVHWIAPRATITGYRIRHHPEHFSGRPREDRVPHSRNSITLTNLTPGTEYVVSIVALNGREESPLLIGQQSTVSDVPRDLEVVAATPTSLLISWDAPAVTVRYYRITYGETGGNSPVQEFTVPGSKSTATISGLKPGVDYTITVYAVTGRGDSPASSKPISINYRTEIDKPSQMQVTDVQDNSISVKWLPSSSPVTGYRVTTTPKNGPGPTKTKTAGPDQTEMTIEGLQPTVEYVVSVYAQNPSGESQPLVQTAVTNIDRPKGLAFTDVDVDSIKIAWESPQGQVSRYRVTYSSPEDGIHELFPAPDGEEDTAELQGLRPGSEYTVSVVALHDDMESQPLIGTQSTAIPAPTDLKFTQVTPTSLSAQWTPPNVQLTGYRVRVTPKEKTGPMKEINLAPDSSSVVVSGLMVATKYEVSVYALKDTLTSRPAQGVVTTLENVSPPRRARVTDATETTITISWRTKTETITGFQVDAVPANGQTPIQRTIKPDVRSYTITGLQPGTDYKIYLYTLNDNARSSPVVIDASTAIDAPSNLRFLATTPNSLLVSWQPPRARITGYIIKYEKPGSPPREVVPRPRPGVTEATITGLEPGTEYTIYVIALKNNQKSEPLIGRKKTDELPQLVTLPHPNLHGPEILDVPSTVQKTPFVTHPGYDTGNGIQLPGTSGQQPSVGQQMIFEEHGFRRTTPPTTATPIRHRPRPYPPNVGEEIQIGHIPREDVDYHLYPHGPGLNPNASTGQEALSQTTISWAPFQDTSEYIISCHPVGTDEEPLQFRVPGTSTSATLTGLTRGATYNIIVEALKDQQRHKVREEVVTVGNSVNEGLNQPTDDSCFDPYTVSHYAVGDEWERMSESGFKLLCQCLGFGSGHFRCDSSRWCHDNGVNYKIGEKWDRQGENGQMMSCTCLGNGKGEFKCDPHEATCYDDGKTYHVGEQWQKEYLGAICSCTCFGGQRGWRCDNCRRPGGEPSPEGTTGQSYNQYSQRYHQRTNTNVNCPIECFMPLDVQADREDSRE
T2 sequence (P02751 32-608 limits assumed): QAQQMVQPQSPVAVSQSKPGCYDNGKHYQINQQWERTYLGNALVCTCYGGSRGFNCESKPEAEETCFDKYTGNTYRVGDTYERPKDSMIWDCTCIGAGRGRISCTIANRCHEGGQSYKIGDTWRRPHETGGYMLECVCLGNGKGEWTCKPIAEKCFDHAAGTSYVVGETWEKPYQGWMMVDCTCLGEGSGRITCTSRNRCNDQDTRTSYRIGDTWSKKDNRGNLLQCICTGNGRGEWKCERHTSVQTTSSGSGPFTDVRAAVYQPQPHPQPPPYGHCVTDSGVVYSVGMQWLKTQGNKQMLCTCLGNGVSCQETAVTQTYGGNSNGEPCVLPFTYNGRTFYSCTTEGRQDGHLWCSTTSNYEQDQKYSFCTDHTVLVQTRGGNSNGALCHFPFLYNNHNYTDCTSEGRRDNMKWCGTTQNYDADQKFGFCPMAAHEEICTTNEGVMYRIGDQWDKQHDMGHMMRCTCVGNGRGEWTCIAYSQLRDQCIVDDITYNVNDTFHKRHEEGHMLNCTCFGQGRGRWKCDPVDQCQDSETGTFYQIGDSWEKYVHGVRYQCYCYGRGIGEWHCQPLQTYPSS
T6 sequence (P02751 other isoform, or with tags, fused parts or gaps limits assumed): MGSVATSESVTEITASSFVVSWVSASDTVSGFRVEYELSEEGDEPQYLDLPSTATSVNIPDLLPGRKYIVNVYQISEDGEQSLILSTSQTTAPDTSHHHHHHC
T13 sequence (P02751 other isoform, or with tags, fused parts or gaps limits assumed): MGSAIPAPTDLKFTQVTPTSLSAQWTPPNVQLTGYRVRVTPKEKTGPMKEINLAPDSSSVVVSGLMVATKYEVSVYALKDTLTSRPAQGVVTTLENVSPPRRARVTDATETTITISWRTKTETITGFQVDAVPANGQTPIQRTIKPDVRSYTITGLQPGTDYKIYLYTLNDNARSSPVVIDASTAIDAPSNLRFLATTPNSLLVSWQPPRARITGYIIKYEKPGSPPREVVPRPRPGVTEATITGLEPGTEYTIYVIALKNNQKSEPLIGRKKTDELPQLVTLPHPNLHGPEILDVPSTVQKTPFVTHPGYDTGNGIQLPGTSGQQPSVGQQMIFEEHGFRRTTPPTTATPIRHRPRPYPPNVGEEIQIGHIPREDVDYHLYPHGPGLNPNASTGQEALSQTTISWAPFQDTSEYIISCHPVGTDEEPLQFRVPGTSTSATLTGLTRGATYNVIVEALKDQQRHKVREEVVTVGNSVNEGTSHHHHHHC
T3 sequence (P02751 other isoform, or with tags, fused parts or gaps limits assumed): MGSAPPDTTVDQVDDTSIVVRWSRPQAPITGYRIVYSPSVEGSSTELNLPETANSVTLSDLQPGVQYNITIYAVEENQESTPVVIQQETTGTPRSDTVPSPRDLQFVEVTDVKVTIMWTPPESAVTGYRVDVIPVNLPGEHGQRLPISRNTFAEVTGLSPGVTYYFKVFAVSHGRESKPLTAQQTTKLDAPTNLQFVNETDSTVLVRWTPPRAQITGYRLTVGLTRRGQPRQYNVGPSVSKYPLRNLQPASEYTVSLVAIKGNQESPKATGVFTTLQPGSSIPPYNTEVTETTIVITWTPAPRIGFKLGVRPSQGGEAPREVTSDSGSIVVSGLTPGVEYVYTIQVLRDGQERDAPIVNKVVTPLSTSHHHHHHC
T8 sequence (P02751 other isoform, or with tags, fused parts or gaps limits assumed): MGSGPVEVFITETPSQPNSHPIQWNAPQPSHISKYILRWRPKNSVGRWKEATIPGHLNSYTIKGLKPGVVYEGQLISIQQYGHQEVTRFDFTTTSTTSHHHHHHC
T9 sequence (P02751 other isoform, or with tags, fused parts or gaps limits assumed): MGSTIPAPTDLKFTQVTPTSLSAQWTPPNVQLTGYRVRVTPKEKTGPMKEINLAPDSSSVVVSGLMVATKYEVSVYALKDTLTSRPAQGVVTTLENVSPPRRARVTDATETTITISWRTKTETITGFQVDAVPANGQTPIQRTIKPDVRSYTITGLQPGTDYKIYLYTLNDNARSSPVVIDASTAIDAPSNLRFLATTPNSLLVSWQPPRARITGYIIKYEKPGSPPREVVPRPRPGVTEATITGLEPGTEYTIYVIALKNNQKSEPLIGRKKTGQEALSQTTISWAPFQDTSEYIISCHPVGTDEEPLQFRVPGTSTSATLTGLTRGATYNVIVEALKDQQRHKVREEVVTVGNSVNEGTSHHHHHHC
T10 sequence (P02751 other isoform, or with tags, fused parts or gaps limits assumed): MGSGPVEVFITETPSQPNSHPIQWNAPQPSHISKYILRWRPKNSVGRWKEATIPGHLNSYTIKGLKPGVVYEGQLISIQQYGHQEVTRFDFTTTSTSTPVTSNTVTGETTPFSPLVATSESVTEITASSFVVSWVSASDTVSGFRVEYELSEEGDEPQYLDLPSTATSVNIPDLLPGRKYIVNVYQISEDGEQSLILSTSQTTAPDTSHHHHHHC

B1: peptide 3 NGQTPIQRTIKPDVRSYTITGLQPGT (peptide)
peptide: NGQTPIQRTIKPDVRSYTITGLQPGT
notes: also called P3; FN1852-877 (so in the source)
binding result (TGF-α): no binding | binding result (EGF): no binding | binding result (FGF-1): no binding | binding result [1]: binds

B2
binding result [2]: no binding | binding result (FNIII3-6): no binding | binding result (FNIII1-7): no binding | binding result [3]: no binding | binding result [4]: no binding | binding result (FNIII2): no binding | binding result (FNIII1-11): no binding | binding result (FNIII1): no binding | binding result [5]: no binding | binding result (FNIII1-2): no binding | binding result (FNIII12-14): no binding | binding result [6]: no binding | binding result [7]: no binding

B3
binding result (FGF-1): no binding | Kd [8]: ~100 nM | Kd [9]: 58 nM

CCVRQLYIDFRKDLG [synthetic peptide homologous to TGF-β1, CCVRQLYIDFRKDLG]
IC50 (read off the curve) [10]: ~8000 nM

B4: peptide 1 (FN634-658) QPSHISKYILRWRPKNSVGRWKEAT (peptide)
peptide: QPSHISKYILRWRPKNSVGRWKEAT
notes: A Cys-tagged form was used in the FN-null cell assay; also called P1
binding result (TGF-α): no binding | binding result (EGF): no binding | binding result (FGF-1): no binding | binding result [1]: binds

QPSVGQQMIFEEHGFRRTTPPTTAT (also called P4) [peptide 4 (FN2043-2067) QPSVGQQMIFEEHGFRRTTPPTTAT]
binding result (TGF-α): no binding | binding result (EGF): no binding | binding result (FGF-1): no binding | binding result [1]: binds

CKTRTEVFEISRRLI [synthetic peptide homologous to PDGF-BB, CKTRTEVFEISRRLI]
binding result [11]: binds

QLISIQQYGHQEVTRFDFTTTSTST (also called P2) [peptide 2 (FN680-704) QLISIQQYGHQEVTRFDFTTTSTST]
binding result (TGF-α): no binding | binding result (EGF): no binding | binding result (FGF-1): no binding | binding result [1]: binds
